Source: article PMC4731787, “Structural basis for the recognition of two consecutive mutually interacting DPF motifs by the SGIP1 μ homology domain” (Scientific Reports, 2016)
Read-outs that look alike come from different tables or passages of the source. Where no end group is shown, it is not given here. GST = glutathione S-transferase fusion tag

B1: appendage domain of human α-adaptin (residues 711 to 955) (domain or fragment, UniProt O95782-2 711-955, looked up)
chain: IGPPIPEADELLNKFVCKNNGVLFENQLLQIGVKSEFRQNLGRMYLFYGNKTSVQFQNFSPTVVHPGDLQTQLAVQTKRVAAQVDGGAQVQQVLNIECLRDFLTPPLLSVRFRYGGAPQALTLKLPVTINKFFQPTEMAAQDFFQRWKQLSLPQQEAQKIFKANHPMDAEVTKAKLLGFGSALLDNVDPNPENFVGAGIIQTKALQVGCLLRLEPNAQAQMYRLTLRTSKEPVSRHLCELLAQQF
notes: also called α-adaptin appendage domain; source: E. coli, purified in the same manner as for the SGIP1 μHD
B2: SGIP1 μ homology domain (residues 552 to 828) (domain or fragment, human, UniProt Q9BQI5-1 552-828, looked up)
chain: LTMGAQDTLPVAAAFTETVNAYFKGADPSKCIVKITGEMVLSFPAGITRHFANNPSPAALTFRVINFSRLEHVLPNPQLLCCDNTQNDANTKEFWVNMPNLMTHLKKVSEQKPQATYYNVDMLKYQVSAQGIQSTPLNLAVNWRCEPSSTDLRIDYKYNTDAMTTAVALNNVQFLVPIDGGVTKLQAVLPPAVWNAEQQRILWKIPDISQKSENGGVGSLLARFQLSEGPSKPSPLVVQFTSEGSTLSGCDIELVGAGYRFSLIKKRFAAGKYLADN
notes: A SeMet-substituted form (E. coli B834(DE3)) was used only for the structure of the domain alone; also called SGIP1 μHD; μHD; source: E. coli BL21-Gold (DE3) or Rosetta2, purified (Glutathione Sepharose, 3C protease cleavage on the column, Superdex 200)
B3: Eps15-530–896 (domain or fragment, human, UniProt P42566-1 530-896, looked up)
chain: STSSSETANLNEHVEGQSNLESEPIHQESPARSSPELLPSGVTDENEVTTAVTEKVCSELDNNRHSKEEDPFNVDSSSLTGPVADTNLDFFQSDPFVGSDPFKDDPFGKIDPFGGDPFKGSDPFASDCFFRQSTDPFATSSTDPFSAANNSSITSVETLKHNDPFAPGGTVVAASDSATDPFASVFGNESFGGGFADFSTLSKVNNEDPFRSATSSSVSNVVITKNVFEETSVKSEDEPPALPPKIGTPTRPCPLPPGKRSINKLDSPDPFKLNDPFQPFPGNDSPKEKDPEIFCDPFTSATTTTNKEADPSNFANFSAYPSEEDMIEWAKRESEREEEQRLARLNQQEQEDLELAIALSKSEISEA
notes: also called C-terminal fragment of human Eps15; source: E. coli, purified (Ni Sepharose, thrombin, Glutathione Sepharose, 3C protease, Superdex 200); not shown: GST, N-terminal, cleaved; His tag, C-terminal, cleaved
B4: Eps15-661–720 (domain or fragment, human, UniProt P42566-1 661-720, looked up)
chain: QSTDPFATSSTDPFSAANNSSITSVETLKHNDPFAPGGTVVAASDSATDPFASVFGNESF
notes: Eps15, human, residues 661-720; source: E. coli, purified in the same manner as for the SGIP1 μHD
B5: Eps15-661–790 (domain or fragment, human, UniProt P42566-1 661-790, looked up)
chain: QSTDPFATSSTDPFSAANNSSITSVETLKHNDPFAPGGTVVAASDSATDPFASVFGNESFGGGFADFSTLSKVNNEDPFRSATSSSVSNVVITKNVFEETSVKSEDEPPALPPKIGTPTRPCPLPPGKRS
notes: Eps15, human, residues 661-790 (limits from the fragment's name); source: E. coli, purified in the same manner as for the SGIP1 μHD

Columns and labels:
[1] = target: SGIP1 μ homology domain (residues 552 to 828) (human) (UniProt Q9BQI5); assay: ITC; VP-ITC, 25 °C, 50 mM Tris-HCl pH 8.0, 50 mM NaCl; for the majority the μHD (SGIP1, its mutants or FCHo1) in the cell, titrated with Eps15 fragments or peptides, for others the reverse (Supplementary Table 2); repeated twice, global fit with SEDPHAT, single-site or two-site model
SGIP1 µHD A563E = assay: ITC of Eps15 fragments with the SGIP1 μHD A563E mutant; assay type: binding, human; conditions: for Kd: 25 °C, 50 mM Tris-HCl pH 8.0, 50 mM NaCl, mutant μHD in cell titrated with fragment, two runs
Protocol: (§1) For the majority of the ITC experiments, the SGIP1 μHD, its mutants, or the FCHo1 μHD, in 50 mM Tris-HCl buffer (pH 8.0) containing 50 mM NaCl, was loaded in the sample cell, in a volume of 1.42 ml, and titrated with various Eps15-derived fragments or peptides in the same buffer, with an initial 5 μl injection and subsequent 10 μl injections, for a total of 25 injections. The titrations were performed while the samples were stirred at 310 r.p.m. at 25 °C. Each injection was followed by an interval of 4 min, to allow baseline stabilization. For the other ITC experiments indicated in Supplementary Table 2, the Eps15-derived fragments or peptides in the sample cell were titrated with the SGIP1 or FCHo1 μHD. All ITC experiments were performed on a VP-ITC microcalorimeter (MicroCal, LLC) and repeated twice, and the data were processed with the program NITPIC[42]. The two data sets from each ITC experiment were analyzed by global weighted least-squares fitting with the program SEDPHAT[43]. Figures for the ITC data were created with the program GUSSI (http://biophysics.swmed.edu/MBR/software.html). To obtain the values of the traditional stoichiometric parameter N in our ITC data analyses (Supplementary Table 2), we used the values of the parameters of the incompetent fractions of proteins and ligands. […] The values of the incompetent fractions are between 0 and 1, whereas the other parameter affecting the traditional parameter N, the number of sites, was fixed as 1 and 2, for the single- and two-site models, respectively. Thus, in the two-site model, the values of N for the first and second sites are identical in our ITC data analyses (Supplementary Table 2).

SGIP1 µHD A565E = assay: ITC of Eps15 fragments with the SGIP1 μHD A565E mutant; assay type: binding, human; conditions: for Kd: 25 °C, 50 mM Tris-HCl pH 8.0, 50 mM NaCl, mutant μHD in cell titrated with fragment, two runs
Protocol: as §1

[2] = target: T1, SGIP1 μHD (residues 552 to 828) (Homo sapiens, UniProt Q9BQI5); assay: ITC of Eps15 fragments with the SGIP1 μHD; assay type: binding; conditions: for Kd: 50 mM Tris-HCl pH 8.0, 50 mM NaCl, global fit of two runs
T1 construct: the SGIP1 μHD (residues 552 to 828); GST (N, cleaved yes); made in house; host or cells: Escherichia coli BL21-Gold (DE3) or Rosetta2
T1 sequence (Q9BQI5 552-828): B2 chain
Protocol: as §1

Eps15-530–896 = target: B3; assay: SEC; analytical gel filtration on Superdex 200, 50 mM Tris-HCl pH 8.0, 50 mM NaCl, 5 mM DTT, 5% glycerol; fractions on SDS-PAGE; Eps15-530–896 and μHD mixed 1:2.4; Eps15-530–896, μHD and appendage domain mixed 1:3:6; conditions: both partners purified
[3] = target: B2; assay: ITC; VP-ITC, 25 °C, 50 mM Tris-HCl pH 8.0, 50 mM NaCl; for the majority the μHD (SGIP1, its mutants or FCHo1) in the cell, titrated with Eps15 fragments or peptides, for others the reverse (Supplementary Table 2); repeated twice, global fit with SEDPHAT, single-site or two-site model; conditions: both partners purified
[4] = target: B1; assay: ITC; VP-ITC; α-adaptin appendage domain with Eps15 fragments; which of the two was in the cell is not told in the text (Supplementary Table 2); conditions: both partners purified
[5] = target: α-adaptin appendage domain (residues 711 to 955); assay: ITC of Eps15 fragments with the α-adaptin appendage domain; assay type: binding, human
[6] = 25 °C, μHD in cell titrated with fragment, single-site model
[7] = 25 °C, μHD in cell titrated with fragment, single-site model, ± 68.3% confidence interval
[8] = 25 °C, fragment in cell titrated with μHD, single-site model
[9] = 25 °C, fragment in cell titrated with μHD, two-site model, first site
[10] = 25 °C, fragment in cell titrated with μHD, two-site model, second site

**Q.** “Eps15 two-DPF fragment, Asp of the C-terminal DPF motif replaced with Asn (peptide)” was tested. Which fold reduction of the binding against the unreplaced fragment [1] did it give?
**A.** The fold reduction of the binding against the unreplaced fragment was 2.4 fold.

**Q.** “Eps15 two-DPF fragment, Asp of the N-terminal DPF motif replaced with Asn (peptide)” was tested. Which fold reduction of the binding against the unreplaced fragment [1] did it give?
**A.** Its fold reduction of the binding against the unreplaced fragment is 3.4 fold.

**Q.** What does the source list for “GST-Eps15-628–644: GST-tagged Eps15 fragment, residues 628–644, 3 DPF motifs ({GST}-SDPFKDDPFGKIDPFGG)”?
**A.** Kd (SGIP1 µHD A563E): below detection limit; Kd (SGIP1 µHD A565E): below detection limit; -TΔS [2, 6]: -2.159 kcal/mol; ΔG [2, 6]: -8.444 kcal/mol; ΔH [2, 7]: -6.285 ± 0.144 kcal/mol

**Q.** “GST-Eps15-628–654: GST-tagged Eps15 fragment, residues 628–654, 5 DPF motifs ({GST}-SDPFKDDPFGKIDPFGGDPFKGSDPFA)” was tested. Which “binding to SGIP1 μHD with Ala563 replaced by Glu (in words)” value (SGIP1 µHD A563E) did it give?
**A.** The value was “abolished the binding”.

**Q.** What about the Kd (SGIP1 µHD A563E) of the same molecule?
**A.** Its Kd is “below detection limit”.

**Q.** And the “binding to SGIP1 μHD with Ala565 replaced by Glu (in words)” value (SGIP1 µHD A565E)?
**A.** Its value is “abolished the binding”.

**Q.** What about the Kd (SGIP1 µHD A565E) of the same molecule?
**A.** Its Kd is “below detection limit”.

**Q.** What about the “-TΔS” value [2, 6] of the same molecule?
**A.** Its value is -1.785 kcal/mol.

**Q.** What about the ΔG [2, 6] of the same molecule?
**A.** Its ΔG is -8.175 kcal/mol.

**Q.** And the ΔH [2, 7]?
**A.** The ΔH was -6.39 ± 0.179 kcal/mol.

**Q.** Does B1 bind (Eps15-530–896)?
**A.** Result: binds

**Q.** Does B2 bind (Eps15-530–896)?
**A.** Result: binds

**Q.** B3 was tested. Which “Kd of the high-affinity site (two-site model)” value [3] did it give?
**A.** The value was ~130 nM.

**Q.** And the Kd ([2]; 25 °C, Eps15 fragment in cell titrated with SGIP1 μHD, two-site model, second site, 68.3% confidence interval, read-out: Kd, second site)?
**A.** The Kd was 27300 ± 15700 nM.

**Q.** What about the Kd ([2]; 25 °C, Eps15 fragment in sample cell titrated with SGIP1 μHD, single-site model, ± 68.3% confidence interval, read-out: Kd) of the same molecule?
**A.** Its Kd is 4500 ± 2200 nM.

**Q.** What about the “-TΔS” value [2, 8] of the same molecule?
**A.** The value was 3.678 kcal/mol.

**Q.** What about the ΔG [2, 8] of the same molecule?
**A.** The ΔG was -7.296 kcal/mol.

**Q.** What about the ΔH ([2]; 25 °C, fragment in cell titrated with μHD, single-site model, ± 68.3% confidence interval) of the same molecule?
**A.** The ΔH was -10.974 ± 0.504 kcal/mol.

**Q.** And the “-TΔS” value [2, 9]?
**A.** The value was -4.297 kcal/mol.

**Q.** What about the ΔG [2, 9] of the same molecule?
**A.** Its ΔG is -9.374 kcal/mol.

**Q.** What about the ΔH ([2]; 25 °C, fragment in cell titrated with μHD, two-site model, first site, ± 68.3% confidence interval) of the same molecule?
**A.** The ΔH was -5.077 ± 0.308 kcal/mol.

**Q.** What about the “-TΔS, second site” value [2, 10] of the same molecule?
**A.** Its value is 2.744 kcal/mol.

**Q.** And the “ΔG, second site” value [2, 10]?
**A.** Its value is -6.226 kcal/mol.

**Q.** What about the “ΔH, second site” value ([2]; 25 °C, fragment in cell titrated with μHD, two-site model, second site, 68.3% confidence interval) of the same molecule?
**A.** Its value is -8.97 ± 1.643 kcal/mol.

**Q.** What about the “N (binding ratio of Eps15 fragment to μHD)” value ([2]; fragment in cell titrated with μHD, single-site model, ± 68.3% confidence interval) of the same molecule?
**A.** Its value is 0.76 ± 0.11.

**Q.** And the “N (binding ratio of Eps15 fragment to μHD)” value ([2]; fragment in cell titrated with μHD, two-site model, first site (N identical for both sites), ± 68.3% confidence interval)?
**A.** Its value is 0.96 ± 0.04.

**Q.** What about the “N, second site” value ([2]; fragment in cell titrated with μHD, two-site model, second site (N identical for both sites), ± 68.3% confidence interval) of the same molecule?
**A.** The value was 0.96 ± 0.04.

**Q.** Does B4 bind [4]?
**A.** Result: binds

**Q.** What does the source list for B5?
**A.** binding result [4]: binds; binding to the SGIP1 μHD (in words) [2]: could not detect the clear binding; Kd ([2]; 25 °C, μHD in sample cell titrated with Eps15 fragment, single-site model, ± 68.3% confidence interval): below detection limit; Kd for the α-adaptin appendage domain (in words) [5]: in the nanomolar range; Kd ([5]; 25 °C, appendage domain titrated with Eps15 fragment, single-site model, global fit of two runs, ± 68.3% confidence interval): 690 ± 80 nM; -TΔS ([5]; 25 °C, single-site model): 20.041 kcal/mol; ΔG ([5]; 25 °C, single-site model): -8.401 kcal/mol; ΔH ([5]; 25 °C, single-site model, ± 68.3% confidence interval): -28.442 ± 0.319 kcal/mol
